The text below walks through data of patent publication US20210147523A1 (TEIJIN PHARMA, published 2021).

Where a chain is given by its changes, count along the chain named.

B1: 50-0704C (antibody, IgG2b, V domains shown)
VH: EVQLVGSGGGLVQPGRSMKLSCEASGFTFSNHYMAWVRQAPTKGLEWVATISTGGGNTYYRDSVKGRFTISRDNARSTLSLQMDSLRSEDTATYYCARQDYSNYMGGFAYWGQGTLVTVSS
VL: QFVLTQPNSVSTNLGSTVKLSCTRSIGNIGNNYVNWYKQYEGRSPTTMIYRDDERPDGVPDRFSGSIDRSSNSALLTINSVQTEDEADYFCQSFSSGIFIFGGGTKLTVL
B2: 89-1207D (antibody, IgG2b, V domains shown)
VH: B1 VH with T78I
VL: B1 VL with S80N, I98M
B3: 18-0211B (antibody, IgG2b, V domains shown)
VH: B1 VH with E1A, K43R, A75T, A97T, S102T
VL: B1 VL with M48L, E86G, K106T
B4: 80-1104A (antibody, IgG2b, V domains shown)
VH: EVQLVETGGGLVQPGSSLKLSCSTSGFTFSETWMSWVRQAPGKGLEWVGLIKDKNSNYEANYAESVKGRFTISRDDSKRRVYLQMYTLRDQDTATYYCTSHEDFYYYSSYYFDYWGQGVMVTVSS
VL: DIVLTQSPATLSVTPGESVSLSCRASQGISTSIHWYQQKSNESPRLLIKYASQSMSGIPSRFSGSGSGTDFTLRINRVESEDFSVYYCQQSYNLPLTFGSGTKLEIKR
B5: 96-1403F (antibody, IgG2b, V domains shown)
VH: B4 VH with Q13R, S23A, E31D, G49A, Y58S, V66I, R79S, Y86N, S100R, S109G
VL: B4 VL with A9P, K39R, M55I, S56A, T72I, R74S, S91T, N93S, S100P, I106V
B6: 93-1310F (antibody, IgG2b, V domains shown)
VH: B4 VH with S23A, E31D, G49A, Y86F, Q117H
VL: B4 VL with E42G, M55I, S91T, N93S, K103R
B7: 83-1110B (antibody, IgG2b, V domains shown)
VH: EVQLQQSGPEFVRPGTSVKFSCKVSGGSITSYFIHFVKQRPGQGLEWIGKIDPEDDSTKYGEKFKNKATLTADTSSNTAFLKLSSLTSEDTAIYFCTTLTGLDYWGQGVMVTVSS
VL: DIQMTQSPPVLSAAVGDRVTLSCKASRSLNKNLDWYQQKHGETPKLLIYHTHNLQTGIPSRFSGSGSDTDYTLTISSLQTEDVATYYCYQYHSGWTFGGGTRLELRR
B8: 37-0511F (antibody, IgG2b, V domains shown)
VH: EVHLQQSGAALVRPRASVKLSCKVSGDSISRYYVHFVKQRPGQGLEWIGRIDPEDDTTKYSEKFKNRATLTADASSDTASLILSGLTSDDTATYFCSTLTGLDYWGQGVMVTVSS
VL: DIQMTQSPPVLSTSVGDRVTLRCKPSQNVHSKLDWYQQKHGEAPKLLIYYTHNLQTGIPSRFSGSGSGTDYTLTISSLQPEDVATYYCFQYYSGWTFGGGTKLEMKR
B9: 94-1311E (antibody, V domains shown)
VH: EVQLQQSGAGLVRPRTSVRLSCKISGDSITAYYVHFVKQRPGQGLEWIGRIDPEDDSTKYSEKFKNKATLTADVSSSTAYLILSSLTSDDSATYFCSTLTGLDYWGQGVMVTVSS
VL: B8 VL with T13A, R22S, P25A, N28S, S31N, T69S, Q79R, P80A
B10: 53-0707E (antibody, IgG2b, V domains shown)
VH: B8 VH with H3Q, A10E, A16T, S30T, N66K, R67K, D77N, S80Y, L83F, D89E
VL: B8 VL with P25A
B11: 84-1111F (antibody, IgG2b, V domains shown)
VH: EVQVVESGGGLVQPGRSMKLSCAALGFTFRDYYMAWVRQTPTKGLEWVAAISTGGGNTYYRDSVKGRFTISRDNAKSTLYLKMDSLRSDDTATYYCARNPYGNYFDYWGQGVMVTVSS
VL: QFVLSQPNSVSTNLGSTVKLSCKRSTGNIGSNYVHWYQRHEGRSPTTMIYRDDKRPNGVPDRFSGSIDRSSNSALLTINNVQTEDEADYFCQSYSGGMYLFGGGTTLTVL

The first assay addresses T1, human SPNS2 K136A mutant (human, UniProt Q8IVW8 1-549).
T1 sequence: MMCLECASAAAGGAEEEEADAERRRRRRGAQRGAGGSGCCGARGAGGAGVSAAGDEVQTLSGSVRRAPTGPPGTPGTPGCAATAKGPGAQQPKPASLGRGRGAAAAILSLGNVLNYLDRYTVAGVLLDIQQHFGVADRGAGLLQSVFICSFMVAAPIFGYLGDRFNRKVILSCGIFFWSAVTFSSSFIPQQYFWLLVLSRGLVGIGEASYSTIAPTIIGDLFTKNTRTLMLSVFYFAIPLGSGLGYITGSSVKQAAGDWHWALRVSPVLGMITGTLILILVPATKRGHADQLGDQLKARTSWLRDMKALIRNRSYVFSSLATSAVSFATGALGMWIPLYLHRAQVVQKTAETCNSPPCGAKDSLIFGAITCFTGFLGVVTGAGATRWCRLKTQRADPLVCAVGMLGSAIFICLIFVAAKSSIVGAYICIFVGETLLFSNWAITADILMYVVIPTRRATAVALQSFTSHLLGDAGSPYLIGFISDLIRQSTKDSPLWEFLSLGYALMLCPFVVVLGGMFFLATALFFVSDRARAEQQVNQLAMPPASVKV
As to the kind of experiment: flow cytometry.
With B1, the “binding ratio vs native type” value is less than 0.5 ratio.
B2: the “binding ratio vs native type” value is less than 0.5 ratio.
As to B3, the “binding ratio vs native type” value is less than 0.5 ratio.
Take B4: the “binding ratio vs native type” value was less than 0.5 ratio.
On the same count and under the same terms, the result for B5 reads less than 0.5 ratio; that for B6, less than 0.5 ratio.

In the next assay the target is T2, human SPNS2 W259A mutant (human, UniProt Q8IVW8 1-549).
T2 sequence: T1 sequence with A136K, W259A
The assay can be described thus: flow cytometry.
B7: the “binding ratio vs native type” value was less than 0.5 ratio.
On to B8, for which the “binding ratio vs native type” value is less than 0.5 ratio.
As to B9, the “binding ratio vs native type” value was less than 0.5 ratio.
Still for that read-out and setting: in the case of B10 it was less than 0.5 ratio.
Consider B1, for which the “binding ratio vs native type” value was less than 0.5 ratio.

For the next assay, the target named is T3, human SPNS2 (human, UniProt Q8IVW8 1-549).
T3 sequence: T1 sequence with A136K
The assay can be described thus: cell-based or functional assay.
As to B7, the “pIC50, S1P transport inhibition (S1PR3 Ca2+ FLIPR bioassay)” value is 7.6 pIC50 (M).
Same read-out and setting: the result for B8 reads 7.3 pIC50 (M); that for B9, 7.8 pIC50 (M).
For the molecule B10, the “pIC50, S1P transport inhibition (S1PR3 Ca2+ FLIPR bioassay)” value was 7.1 pIC50 (M).
Take B1: the “pIC50, S1P transport inhibition (S1PR3 Ca2+ FLIPR bioassay)” value was 7.2 pIC50 (M).
Still for that read-out and setting: the result for B2 reads 7.2 pIC50 (M); that for B3, 7.6 pIC50 (M); that for B11, 7.7 pIC50 (M).
On to B4, for which the “pIC50, S1P transport inhibition (S1PR3 Ca2+ FLIPR bioassay)” value is 7.5 pIC50 (M).
The same measure, in the same setting: in the case of B5 it was 6.9 pIC50 (M); in that of B6, 7.6 pIC50 (M).

The next assay addresses T3, human SPNS2. The assay can be described thus: cell-based or functional assay. The source holds these as a separate data set.
As for B7, the “pIC50, S1P transport inhibition (LC-MS/MS of S1P)” value is 7.9 pIC50 (M).
B8: the “pIC50, S1P transport inhibition (LC-MS/MS of S1P)” value was 7.7 pIC50 (M).
On the same count and under the same terms, the result for B9 reads 7.9 pIC50 (M); that for B10, 7.3 pIC50 (M); that for B1, 7.6 pIC50 (M).
In the case of B2, the “pIC50, S1P transport inhibition (LC-MS/MS of S1P)” value was 7.6 pIC50 (M).
Regarding B3, the “pIC50, S1P transport inhibition (LC-MS/MS of S1P)” value was 7.9 pIC50 (M).
Consider B11, for which the “pIC50, S1P transport inhibition (LC-MS/MS of S1P)” value was 8.1 pIC50 (M).
As to B4, the “pIC50, S1P transport inhibition (LC-MS/MS of S1P)” value is 7.7 pIC50 (M).
As to B5, the “pIC50, S1P transport inhibition (LC-MS/MS of S1P)” value was 7 pIC50 (M).
On the same count and under the same terms, the result for B6 reads 7.6 pIC50 (M).

For a further assay, the target named is T4, mouse SPNS2 (mouse, UniProt Q91VM4 1-549).
T4 sequence: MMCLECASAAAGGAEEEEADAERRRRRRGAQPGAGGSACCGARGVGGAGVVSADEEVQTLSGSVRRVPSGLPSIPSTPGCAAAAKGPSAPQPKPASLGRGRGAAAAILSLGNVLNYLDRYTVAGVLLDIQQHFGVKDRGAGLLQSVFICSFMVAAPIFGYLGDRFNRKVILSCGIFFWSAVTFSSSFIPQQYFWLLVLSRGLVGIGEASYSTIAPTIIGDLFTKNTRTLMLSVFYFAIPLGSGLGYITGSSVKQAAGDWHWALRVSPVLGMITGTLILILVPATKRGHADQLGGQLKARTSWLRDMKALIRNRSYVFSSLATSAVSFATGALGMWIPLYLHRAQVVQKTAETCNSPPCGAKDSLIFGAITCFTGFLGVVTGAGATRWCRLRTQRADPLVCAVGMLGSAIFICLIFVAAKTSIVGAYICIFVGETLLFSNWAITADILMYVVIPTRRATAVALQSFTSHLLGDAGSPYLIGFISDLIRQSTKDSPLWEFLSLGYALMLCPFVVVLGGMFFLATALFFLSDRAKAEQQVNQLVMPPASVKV
As to the kind of experiment: cell-based or functional assay.
Turning to B7, the “pIC50, S1P transport inhibition (LC-MS/MS of S1P)” value was 8.1 pIC50 (M).
With B8, the “pIC50, S1P transport inhibition (LC-MS/MS of S1P)” value is 7.8 pIC50 (M).
B9: the “pIC50, S1P transport inhibition (LC-MS/MS of S1P)” value is 8.2 pIC50 (M).
Regarding B10, the “pIC50, S1P transport inhibition (LC-MS/MS of S1P)” value is 7.6 pIC50 (M).
Still for that read-out and setting: the result for B1 reads 7.8 pIC50 (M); that for B2, 7.8 pIC50 (M).
Still for that read-out and setting: the result for B3 reads 8.1 pIC50 (M); that for B11, 8.3 pIC50 (M); that for B4, 8 pIC50 (M).
Still for that read-out and setting: in the case of B5 it was 7.7 pIC50 (M); in that of B6, 8.2 pIC50 (M).
